Results on 1 molecule are retold here after US12702697B2, “Compositions and methods for treatment of headache disorders and neuropathic pain” (Washington University, priority 2019, dated 2026).

For data set [1], the system named is Treg cells and CD3+ T cells in dura, TG and DRG. Description: Immunohistochemistry of CD3+ T cells and EGFP+ Treg cells in dura, TG, DRG and cervical/medullary dorsal horn. The format is in vivo, mouse. How it is done:
Tissue preparation, immunohistochemistry, and image analysis. Mice were euthanized with i.p. injection of barbiturate (200 mg/kg) and were transcardially perfused with warm 0.1 M phosphate buffered saline (pH 7.2) followed by cold 4% formaldehyde in 0.1 M phosphate buffer (pH 7.2) for fixation. Trigeminal ganglia, lumbar L4 DRG, and the tissues containing the cervical/medullary dorsal horn (from obex to C3 cervical spinal cord) were collected and sectioned at […] in the transverse plane, collected on Superfrost Plus glass slides in sequence and stored at […]
The dura was carefully dissected from the skull using forceps and stained as whole mount. T cells were identified by the rat anti-CD3 antibody (clone 17A2, 1:200; eBioscience, San Diego, CA), and Treg cells were identified with the chicken anti-EGFP (1:1000; AVES Lab, Tigard, OR) antibody in tissues from DEREG mice. […] To quantify CD31 T cells and Treg cells on the dura, we took random, nonoverlapping images (10 per mouse) in areas adjacent to the middle meningeal artery (MMA). To quantify T cells and Treg cells in TG, DRG, and cervical/medullary dorsal horn, all cells on individual sections were counted, and the number was multiplied by 4 to obtain the total number of cells per ganglion in each mouse. […] Representative images were adjusted for contrast and brightness using the same parameter within individual experiments. No other manipulations were made to the images. Image analysis was performed with experimenters blinded to the experimental groups.

Data set [2] has as its system mTBI-induced memory deficit in mice. Description: Novel object recognition (NOR) assay after mTBI. The format is in vivo, mouse. The settings on record: ld-IL2 between day 6 and 12 post-mTBI. How it is done: The novel object recognition (NOR) assay was used to test the effect of mTBI and ld-IL2 treatment on cognition. On the training day, mice were allowed to explore two identical objects in an arena for 10 minutes. The next day, mice were allowed to explore the same space in the presence of the familiar object and a novel object to test long-term recognition memory. […] After mTBI, mice spent similar amounts of time exploring the familiar and the novel object, indicating a deficit in recognition memory (FIG. 12, mTBI+saline). […] Remarkably, the effect of ld-IL2 on memory deficit lasted for at least 20 days after the cessation of treatment.

Data set [3] has as its system Treg cells. Nature of the data set: Flow cytometry of T-cell subsets in peripheral blood, cervical LNs and spleen. The format is in vivo, mouse. The source says: Blood, spleen, and cervical lymph node cell preparation, antibody staining, flow cytometry, and enzyme-linked immunosorbent assay (ELISA). Adult male DEREG and C57BL/6J mice received 15 daily injections of saline or IL2. About […] blood was collected from each mouse by submandibular bleeding. Mice used for blood collection were not used in the behavioral tests. Spleen and cervical LN tissues were ground and filtered through a sterile […] cell strainer. After lysis of red blood cells (420301; Biolegend), cells were pelleted and resuspended for antibody staining, ELISA, and ELISPOT assay. Live cells were counted by the Vi-CELL Automated Cell Viability Analyzer (Beckman, Chaska, MN).
About 2×10^6 suspension cells were stained with the following antibodies from Biolegend that recognizes mouse CD3e (clone 145-2C11), CD4 (clone GK1.5 and RM4-5), CD8 (clone 53-6.7), and CD25 (clone PC61). The percentages of individual cell phenotypes were determined using flow cytometric analysis. Data were collected with FACScan (Becton Dickinson, Franklin Lakes, NJ) and analyzed with CellQuest Pro (Becton Dickinson) and Rainbow X Alias (Cytek) softwares.
In general terms: A flow cytometer gives signals particle by particle.

Data set [4] has as its system IFNγ secretion by splenocytes. Nature of the data set: IFNγ ELISA and ELISPOT of CD3/CD28-stimulated splenocytes. The format is cell-based, mouse. How it is done: To quantify interferon g (IFNγ) secretion, splenocytes were plated in 24-well plates (5 3 106 per well) and stimulated with antiCD3 and anti-CD28 antibodies ([…]) in 1 mL complete RPMI1640 media overnight. IFNγ in the supernatants were quantified by ELISA (430901; Biolegend).
ELISPOT assay was performed to determine the number of INFg-secreting cells. Splenocytes were plated at 5×10^4 cells per well and incubated overnight with RPMI1640 media containing anti-CD3 and anti-CD28 antibodies ([…]) for stimulation. IFNg was detected using a colorimetric reagent kit (R&D SEL485 and SEL002). Following development, images were captured and analyzed on the ImmunoSpot7.0 plate reader (Cellular Technologies, Kennesaw, GA).
On the technique in general: In an ELISA, binding on a coated surface is turned into a signal by an enzyme label.

For data set [5] the following is noted: human, in vivo; cited from earlier work.
Where [6] appears, read: 15 days of ld-IL2, male DEREG mice.
The mark [7] stands for this setting: 15 days of ld-IL2, C57BL/6J males.

B1: ld-IL2: Recombinant mouse IL2 (carrier-free; Biolegend), given as daily low-dose i.p. injection (protein, UniProt P04351 21-169, looked up)
Interleukin-2: APTSSSTSSSTAEAQQQQQQQQQQQQHLEQLLMDLQELLSRMENYRNLKLPRMLTFKFYLPKQATELKDLQCLEDELGPLRHVLDLTQSKSFQLEDAENFISNIRVTVVKLKGSDNTFECQFDDESATVVDFLRRWIAFCQSIISTSPQ
In the case of B1, the “frequency of Treg cells among CD3+ cells in the dura” value in data set [1] (15 days of ld-IL2 (5% without)) was determined as 20%. Besides, the “increase of the number of EGFP+ Treg cells in the TG” value in data set [1] (15 days of ld-IL2, female DEREG mice) is on record as 9 fold. Besides, in data set [1] (setting [6]), the “increase in the density of EGFP+ Treg cells in the dura surrounding the MMA” value amounted to 4 fold and the “increase in the number of EGFP+ Treg cells in DRG” value turned out to be 4 fold. Further, in data set [2], the “duration of the effect on memory deficit after cessation of treatment” value is “at least 20 days” and the “novel object recognition deficit after mTBI” value was “did not exhibit NOR deficit”. The “percentage of EGFP+ Treg cells in the cervical LNs” value in data set [3] (15 daily ld-IL2 injections, male DEREG mice) is “increased significantly”. In addition, in data set [3] (setting [7]), the “number and frequency of CD25+CD4+ Treg cells in the spleen” value is “doubled”; the “number of CD8+ cells in the spleen” value is “increased only slightly”. Besides, in data set [3] (after 5 daily ld-IL2 injections i.p., male DEREG mice), the “increase of the frequency of EGFP+ Treg cells in the peripheral blood” value is recorded as “more than 100%”. In addition, the “frequencies of CD4+ and CD3+ T cells in the blood or LNs” value in data set [3] (daily ld-IL2, 15 days) was “not altered”. For the same molecule, the “amount of CD3/CD28 stimulation-induced IFNγ secretion” value in data set [4] (ELISA, cells from IL-2-treated mice) was “significantly reduced”. Also, the “number of splenocytes secreting IFNγ” value in data set [4] (ELISPOT, 15 days of ld-IL2) is given as “not altered”. Also, the tolerability in patients result in data set [5] is recorded as “well tolerated”.
